Our source for the MFI values is patent publication US20140127211A1.

The target in experiment [1] is full-length human Notch3 expressed on the cell surface (human) (UniProt Q9UM47). Put plainly: flow cytometry, negative control antibody, OVCAR3 cells. On the technique in general: Flow cytometry measures light scatter and fluorescence of single cells or particles in a stream.
Experiment [2] shares this target. Put plainly: flow cytometry, negative control antibody, HCC2429 cells.
The target is the same in experiment [3]. In words: flow cytometry, negative control antibody, U2OS/hNotch3 cells.
For experiment [4] the target is unchanged. Put plainly: flow cytometry, negative control antibody, MDA-MB-468 cells.
Experiment [5] shares this target. In words: flow cytometry, negative control antibody, MDA-MB-468/hNotch3 cells.

Chain of full-length human Notch3 expressed on the cell surface (human) (Q9UM47 40-2321): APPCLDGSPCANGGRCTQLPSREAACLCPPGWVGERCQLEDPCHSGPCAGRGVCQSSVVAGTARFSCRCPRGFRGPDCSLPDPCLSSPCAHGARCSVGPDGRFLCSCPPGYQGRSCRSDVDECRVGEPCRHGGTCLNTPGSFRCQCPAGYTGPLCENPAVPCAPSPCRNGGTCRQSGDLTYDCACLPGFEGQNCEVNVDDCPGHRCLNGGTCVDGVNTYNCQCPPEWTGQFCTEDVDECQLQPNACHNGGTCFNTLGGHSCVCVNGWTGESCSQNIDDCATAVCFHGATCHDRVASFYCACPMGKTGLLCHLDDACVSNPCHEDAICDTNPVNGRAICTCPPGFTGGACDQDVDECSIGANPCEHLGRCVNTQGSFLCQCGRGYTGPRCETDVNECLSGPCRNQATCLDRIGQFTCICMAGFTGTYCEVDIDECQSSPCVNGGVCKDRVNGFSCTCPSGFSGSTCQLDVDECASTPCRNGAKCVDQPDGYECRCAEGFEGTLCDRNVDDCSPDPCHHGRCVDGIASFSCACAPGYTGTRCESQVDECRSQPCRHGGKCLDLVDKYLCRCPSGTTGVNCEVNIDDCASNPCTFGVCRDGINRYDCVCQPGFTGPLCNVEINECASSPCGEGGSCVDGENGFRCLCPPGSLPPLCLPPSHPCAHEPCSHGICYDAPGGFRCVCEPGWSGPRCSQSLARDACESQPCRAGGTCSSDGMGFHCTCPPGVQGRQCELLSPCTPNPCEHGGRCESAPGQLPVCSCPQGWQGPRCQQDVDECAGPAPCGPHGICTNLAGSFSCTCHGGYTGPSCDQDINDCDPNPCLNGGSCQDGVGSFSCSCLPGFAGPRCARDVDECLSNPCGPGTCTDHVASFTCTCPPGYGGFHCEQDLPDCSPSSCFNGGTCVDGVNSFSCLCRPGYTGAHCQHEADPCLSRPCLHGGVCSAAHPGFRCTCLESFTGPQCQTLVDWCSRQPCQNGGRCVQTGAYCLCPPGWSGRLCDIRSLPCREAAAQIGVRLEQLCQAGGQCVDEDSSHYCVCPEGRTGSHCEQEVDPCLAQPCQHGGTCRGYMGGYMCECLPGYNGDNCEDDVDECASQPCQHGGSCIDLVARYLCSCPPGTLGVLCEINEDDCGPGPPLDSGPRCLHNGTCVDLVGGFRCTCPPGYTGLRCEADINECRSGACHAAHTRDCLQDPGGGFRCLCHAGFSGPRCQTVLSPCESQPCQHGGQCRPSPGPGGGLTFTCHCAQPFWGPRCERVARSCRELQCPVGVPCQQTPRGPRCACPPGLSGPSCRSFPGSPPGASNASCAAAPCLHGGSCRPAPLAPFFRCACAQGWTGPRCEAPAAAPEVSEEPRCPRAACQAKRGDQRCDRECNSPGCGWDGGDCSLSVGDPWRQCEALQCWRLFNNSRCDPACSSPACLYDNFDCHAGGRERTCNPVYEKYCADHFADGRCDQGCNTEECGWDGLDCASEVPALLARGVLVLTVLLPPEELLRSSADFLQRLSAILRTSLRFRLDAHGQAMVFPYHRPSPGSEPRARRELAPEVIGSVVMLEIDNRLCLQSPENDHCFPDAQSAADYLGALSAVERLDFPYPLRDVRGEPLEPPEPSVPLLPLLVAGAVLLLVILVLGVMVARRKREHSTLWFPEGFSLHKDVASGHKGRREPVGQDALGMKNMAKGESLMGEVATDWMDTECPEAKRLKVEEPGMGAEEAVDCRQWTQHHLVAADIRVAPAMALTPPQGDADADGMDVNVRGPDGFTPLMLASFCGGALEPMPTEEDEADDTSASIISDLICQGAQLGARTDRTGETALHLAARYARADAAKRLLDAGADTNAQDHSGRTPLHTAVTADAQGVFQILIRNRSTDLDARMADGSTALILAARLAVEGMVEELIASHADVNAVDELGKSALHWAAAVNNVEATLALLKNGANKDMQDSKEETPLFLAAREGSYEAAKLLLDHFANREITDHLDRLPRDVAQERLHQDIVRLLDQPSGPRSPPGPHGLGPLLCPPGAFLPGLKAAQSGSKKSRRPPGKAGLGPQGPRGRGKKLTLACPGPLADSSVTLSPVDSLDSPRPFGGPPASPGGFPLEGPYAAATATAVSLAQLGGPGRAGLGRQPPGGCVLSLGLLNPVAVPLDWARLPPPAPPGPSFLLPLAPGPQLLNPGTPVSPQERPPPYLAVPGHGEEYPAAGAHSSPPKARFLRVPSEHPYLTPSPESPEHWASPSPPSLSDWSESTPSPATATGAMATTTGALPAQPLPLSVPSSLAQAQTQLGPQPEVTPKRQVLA

Consider huNeg8.8 negative control antibody, for which the MFI in experiment [1] was determined as 5 MFI; in experiment [2], 3 MFI; in experiment [3], 6 MFI; in experiment [4], 6 MFI; in experiment [5], 6 MFI.
